This note sets out measurements from US20240368250A1 (Ablynx, published 2024).

The target of test [1] is T1, Human FcRn (biotinylated human FcRn) (human, UniProt P61769 21-119).
T1 construct: Biotinylated human FcRn captured on a Series S Sensor Chip SA; also called human neonatal Fc receptor; hFcRn
Briefly: SPR Biacore 8K+, biotinylated hFcRn on SA chip (~500-600 RU), pH 6.0, bivalent analyte fit (kd1). In general terms: SPR reads the build-up and loss of mass on a sensor chip optically.

The target of test [2] is T2, Mouse serum albumin (MSA; Albumin Bioscience Cat No. 2601) (mouse, UniProt P07724 25-608). Briefly: SPR Biacore 8K+, MSA on C1 chip, pH 7.4, off-rate column.
The target in test [3] is T1, Human FcRn (biotinylated human FcRn). Briefly: SPR Biacore 8K+, biotinylated hFcRn on SA chip (~500-600 RU), pH 6.0, bivalent analyte fit.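 Further: analytes were Fc proteins binding to biotinylated human FcRn captured on a Series S streptavidin sensor chip.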
Test [4] shares this target. Briefly: SPR Biacore 8K+, biotinylated hFcRn on SA chip (~500-600 RU), pH 6.0, bivalent analyte fit (KD1).
In test [5] the target is T3, Human serum albumin (HSA; Sigma-Aldrich Cat No. A8763) (human, UniProt P02768 25-609). Briefly: SPR Biacore 8K+, HSA on C1 chip, pH 7.4, off-rate column.
The target in test [6] is T1, Human FcRn (biotinylated human FcRn). Briefly: SPR Biacore 8K+, biotinylated hFcRn on SA chip (~500-600 RU), pH 6.0, bivalent analyte fit (ka1).
For test [7], the target named is T3, Human serum albumin (HSA; Sigma-Aldrich …). Briefly: SPR Biacore 8K+, HSA on C1 chip, pH 7.4, bivalent analyte fit (kd1).
For test [8] the target is unchanged. Briefly: SPR Biacore 8K+, HSA on C1 chip, pH 7.4, bivalent analyte fit (ka1).
The target of test [9] is T2, Mouse serum albumin (MSA; Albumin …). Briefly: SPR Biacore 8K+, MSA on C1 chip, pH 7.4, bivalent analyte fit (kd1).
The target is the same in test [10]. Briefly: SPR Biacore 8K+, MSA on C1 chip, pH 7.4, bivalent analyte fit (ka1).
Test [11] shares this target. Briefly: SPR Biacore 8K+, MSA on C1 chip, pH 7.4, bivalent analyte fit (KD1).
In test [12] the target is T3, Human serum albumin (HSA; Sigma-Aldrich …). Briefly: SPR Biacore 8K+, HSA on C1 chip, pH 7.4, bivalent analyte fit (KD1).

What is called koff is the first-order rate constant of dissociation. High values mean a short-lived complex, low ones a long-lived complex. In general, kon refers to the rate constant with which the complex forms.

B1: TPP-66150 (Fc fusion)
chain 1: DVQLVESGGGVVQAGGSLSISCAASGGSLSNYVLGWFRQAPGKEREFVAAINWRGDITIGPPNVEGRFTISRDNAKNTGYLQMNSLAPDDTALYYCGAGTPLNPGAYIYDWSYDYWGRGTLVTVSSDKTHTCPPCPAPEAAGGPSVFLFPPKPKDTLMISRTPEVTCVVVDVSQEDPEVQFNWYVDGVEVHNAKTKPREEQFNSTYRVVSVLTVLHQDWLNGKEYKCKVSNKGLPSSIEKTISKAKGQPREPQVYTLPPCQEEMTKNQVSLWCLVKGFYPSDIAVEWESNGQPENNYKTTPPVLDSDGSFFLYSKLTVDKSRWQEGNVFSCSVMHEALHNHYTQKSLSLSLG
chain 2: DVQLVESGGGVVQAGGSLSISCAASGGSLSNYVLGWFRQAPGKEREFVAAINWRGDITIGPPNVEGRFTISRDNAKNTGYLQMNSLAPDDTALYYCGAGTPLNPGAYIYDWSYDYWGRGTLVTVSSDKTHTCPPCPAPEAAGGPSVFLFPPKPKDTLMISRTPEVTCVVVDVSQEDPEVQFNWYVDGVEVHNAKTKPREEQFNSTYRVVSVLTVLHQDWLNGKEYKCKVSNKGLPSSIEKTISKAKGQPREPQVCTLPPSQEEMTKNQVSLSCAVKGFYPSDIAVEWESNGQPENNYKTTPPVLDSDGSFFLVSKLTVDKSRWQEGNVFSCSVMHEALHNRFTQKSLSLSLGGGGGSGGGGSGGGGSGGGGSGGGGSGGGGSGGGGSDLGKKLLEAARAGQDDEVRELLKAGADVNAKDYFSHTPLHLAARNGHLKIVEVLLKAGADVNAKDFAGKTPLHLAANEGHLEIVEVLLKAGADVNAQDIFGKTPADIAADAGHEDIAEVLQKAA
For the molecule B1, the koff in [1] amounted to 0.0859 s⁻¹. The binding result in test [2] is listed as “binds”. Further, in test [3], the KD2 is 6.37 M, the ka2 was 3.02e-05 1/RUs and the kd2 was found to be 0.000192 s⁻¹. The same molecule showed a Kd in test [4] of 1160 nM. Besides, the binding result in test [5] is “binds”. This molecule also came in with a kon in [6] of 73900 M⁻¹ s⁻¹.

B2: TPP-66177 (Fc fusion)
chain: DVQLVESGGGVVQAGGSLSISCAASGGSLSNYVLGWFRQAPGKEREFVAAINWRGDITIGPPNVEGRFTISRDNAKNTGYLQMNSLAPDDTALYYCGAGTPLNPGAYIYDWSYDYWGRGTLVTVSSDKTHTCPSCPAPEAAGGPSVFLFPPKPKDTLMISRTPEVTCVVVDVSQEDPEVQFNWYVDGVEVHNAKTKPREEQFNSTYRVVSVLTVLHQDWLNGKEYKCKVSNKGLPSSIEKTISKAKGQPREPQVYTLPPSQEEMTKNQVSLTCLVKGFYPSDIAVEWESNGQPENNYKTTPPVLDSDGSFFLYSKLTVDKSRWQEGNVFSCSVMHEALHNHYTQKSLSLSLGGGGGSGGGGSGGGGSGGGGSGGGGSGGGGSGGGGSEVQLVESGGGVVQPGGSLRLSCAASGFTFRSFGMSWVRQAPGKGPEWVSSISGSGSDTLYADSVKGRFTISRDNSKNTLYLQMNSLRPEDTALYYCTIGGSLSRSSQGTLVTVSSA
notes: Symmetrical IgG4 FALA Fc fusion without knob-in-hole mutations, two C-terminal ALB23002 via 35GS; also called symmetrical ALB23002 ISVD-Fc polypeptide
Consider B2, for which the koff in [1] came out at 0.0872 s⁻¹; in test [7], 0.000776 s⁻¹; in [9], 0.000404 s⁻¹. Also, the kon is 54300 M⁻¹ s⁻¹ in test [8], 45900 M⁻¹ s⁻¹ in test [10] and 51500 M⁻¹ s⁻¹ in test [6]. Moreover, the KD2 in test [3] was determined as 3.64 M. Besides, the ka2 in [3] is 4.07e-05 1/RUs. The molecule further displayed a kd2 in test [3] of 0.000148 s⁻¹. Further, the Kd was 1690 nM in test [4], 8.8 nM in test [11] and 14.3 nM in [12].
